Columns and labels:
GFP-TALE_9a_26 WT [1] = target: T1, GFP-TALE_9a_26 WT (Xanthomonas axonopodis scaffold …); test: EMSA; 5mC vs C DNA; EMSA: 20 mM Tris pH 8, 50 mM NaCl, 5 mM MgCl2, 5% glycerol; 0.1 pmol TALE + 0.5 pmol duplex in 10 uL; RT 30 min then ice 30 min; gel 0.5x TAE 4 C; GFP readout; conditions: protein: recombinant; tags: N-terminal GFP; C-terminal His6; blunt
GFP-TALE_9a_26 WT [2] = target: T1, GFP-TALE_9a_26 WT; test: EMSA; EMSA: 20 mM Tris pH 8, 50 mM NaCl, 5 mM MgCl2, 5% glycerol; 0.1 pmol TALE + 0.5 pmol duplex in 10 uL; RT 30 min then ice 30 min; gel 0.5x TAE 4 C; GFP readout; conditions: protein: recombinant; tags: N-terminal GFP; C-terminal His6; blunt

B1: 9a_26 5mC (dsDNA)
DNA 1: GGCCAGCCAGTCAGCCGAAGGCTCCATGCTGCTCCCCGCCGCCGGC
DNA 2: GCCGGCGGCGGGGAGCAGCATGGAGCCTTCGGCTGACTGGCTGGCC
modifications: 5mC at strand 1 nt 16 (site position 5, T = 0)
binding signal (GFP-TALE_9a_26 WT [1]): 2 fold C over 5mC selectivity

B2: 9a_26 C (dsDNA)
DNA 1: B1 DNA 1
DNA 2: B1 DNA 2
binding result (GFP-TALE_9a_26 WT [2]): binds

Source: PMC5678105, “Engineering DNA Backbone Interactions Results in TALE Scaffolds with Enhanced 5-Methylcytosine Selectivity”
